Test results from patent publication US20090042849.

Assays:
[1] = target: T1, cycloxygenase-2, P35355
T1 chain: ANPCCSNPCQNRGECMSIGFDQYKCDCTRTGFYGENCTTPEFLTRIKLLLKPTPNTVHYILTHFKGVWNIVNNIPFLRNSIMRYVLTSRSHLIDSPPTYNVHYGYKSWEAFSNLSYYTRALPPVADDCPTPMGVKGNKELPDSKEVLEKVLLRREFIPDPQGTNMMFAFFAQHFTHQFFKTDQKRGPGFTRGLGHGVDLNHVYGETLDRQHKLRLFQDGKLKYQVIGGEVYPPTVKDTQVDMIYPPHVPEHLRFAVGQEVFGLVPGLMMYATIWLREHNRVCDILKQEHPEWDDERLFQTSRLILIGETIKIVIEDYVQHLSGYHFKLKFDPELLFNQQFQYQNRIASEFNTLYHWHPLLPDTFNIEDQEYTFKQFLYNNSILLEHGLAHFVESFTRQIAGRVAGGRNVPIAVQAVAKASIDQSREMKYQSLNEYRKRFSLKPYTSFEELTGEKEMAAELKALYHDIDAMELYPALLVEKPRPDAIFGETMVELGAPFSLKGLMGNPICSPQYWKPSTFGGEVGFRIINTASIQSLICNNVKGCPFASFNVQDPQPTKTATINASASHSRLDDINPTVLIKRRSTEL

[2] = target: T2, cytosolic phospholipase A2, P50393
T2 chain: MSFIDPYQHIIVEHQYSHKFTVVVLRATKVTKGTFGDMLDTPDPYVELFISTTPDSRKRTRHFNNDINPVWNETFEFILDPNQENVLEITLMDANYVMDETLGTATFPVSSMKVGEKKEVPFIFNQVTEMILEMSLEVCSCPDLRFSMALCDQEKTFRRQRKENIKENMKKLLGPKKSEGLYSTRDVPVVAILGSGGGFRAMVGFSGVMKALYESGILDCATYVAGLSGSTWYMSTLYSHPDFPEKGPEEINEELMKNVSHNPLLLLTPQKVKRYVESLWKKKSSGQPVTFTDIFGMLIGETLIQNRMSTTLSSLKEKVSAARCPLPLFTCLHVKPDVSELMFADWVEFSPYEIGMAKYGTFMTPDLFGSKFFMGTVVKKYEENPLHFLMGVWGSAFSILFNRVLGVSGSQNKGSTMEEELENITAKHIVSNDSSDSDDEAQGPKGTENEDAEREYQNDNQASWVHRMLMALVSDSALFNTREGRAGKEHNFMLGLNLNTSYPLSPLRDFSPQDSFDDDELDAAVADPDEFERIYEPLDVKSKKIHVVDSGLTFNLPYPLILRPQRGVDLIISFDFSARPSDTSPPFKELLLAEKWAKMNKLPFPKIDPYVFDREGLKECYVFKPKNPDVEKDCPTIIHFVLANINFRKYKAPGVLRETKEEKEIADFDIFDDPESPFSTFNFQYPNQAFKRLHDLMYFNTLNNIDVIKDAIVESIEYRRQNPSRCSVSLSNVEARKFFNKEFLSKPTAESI

B1: 5-lipoxygenase (protein)
chain: MPSYTVTVATGSQWFAGTDDYIYLSLIGSAGCSEKHLLDKAFYNDFERGGRDSYDVTVDEELGEIYLVKIEKRKYRLHDDWYLKYITLKTPHDYIEFPCYRWITGEGEIVLRDGCAKLARDDQIHILKQHRRKELETRQKQYRWMEWNPGFPLSIDAKCHKDLPRDIQFDSEKGVDFVLNYSKAMENLFINRFMHMFQSSWHDFADFEKIFVKISNTISERVKNHWQEDLMFGYQFLNGCNPVLIKRCTELPKKLPVTTEMVECSLERQLSLEQEVQEGNIFIVDYELLDGIDANKTDPCTHQFLAAPICLLYKNLANKIVPIAIQLNQTPGEKNPIFLPTDSKYDWLLAKIWVRSSDFHIHQTITHLLRTHLVSEVFGIAMYRQLPAVHPLFKLLVAHVRFTIAINTKAREQLNCEYGLFDKANATGGGGHVQMVQRAVQDLTYSSLCFPEAIKARGMDNTEDIPYYFYRDDGLLVWEAIQSFTTEVVSIYYEDDQVVEEDQELQDFVKDVYVYGMRGRKASGFPKSIKSREKLSEYLTVVIFTASAQHAAVNFGQYDWCSWIPNAPPTMRAPPPTAKGVVTIEQIVDTLPDRGRSCWHLGAVWALSQFQENELFLGMYPEEHFIEKPVKEAMIRFRKNLEAIVSVIAERNKNKKLPYYYLSPDRIPNSVAI
15ELXA production [1]: it interacted with COX2 in the cytosolic fraction (FIG. 11) to generate 15ELXA (FIG. 9A)
LTB4 production [2]: 5-lipoxygenase co-immunoprecipitated with cPLA2 (FIG. 10) and metabolized arachidonic acid, generated by cPLA2, into LTB4
